Assay results taken from patent US20210347908A1 (ELPISCIENCE SUZHOU BIOPHARMA, published 2021).

T1: 6×His tagged C57BL/6 mouse SIRPα ECD recombinant protein (mouse (C57BL/6), UniProt P97797 32-373)
T1 construct: extracellular domain; bought; also called mSIRPα (C57BL/6); mouse SIRPα (C57BL/6) ECD
T1 sequence: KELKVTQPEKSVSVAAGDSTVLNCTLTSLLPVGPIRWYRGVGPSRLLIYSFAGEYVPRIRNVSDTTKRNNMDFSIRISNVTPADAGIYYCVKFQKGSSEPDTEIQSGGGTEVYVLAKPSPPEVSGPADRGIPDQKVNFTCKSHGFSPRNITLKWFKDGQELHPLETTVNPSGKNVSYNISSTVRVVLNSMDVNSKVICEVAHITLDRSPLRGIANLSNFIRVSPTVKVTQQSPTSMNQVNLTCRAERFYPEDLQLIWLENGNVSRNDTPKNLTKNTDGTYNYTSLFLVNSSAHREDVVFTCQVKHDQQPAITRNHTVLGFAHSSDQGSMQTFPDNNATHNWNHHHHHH

T2: full length C57BL/6 mouse SIRPα stably expressed on CHOK1 cells (mouse (C57BL/6), UniProt P97797 32-513)
T2 construct: whole, on cells; also called CHOK1-C57BL/6 mouse SIRPα-2.22 cells
T2 sequence (looked up): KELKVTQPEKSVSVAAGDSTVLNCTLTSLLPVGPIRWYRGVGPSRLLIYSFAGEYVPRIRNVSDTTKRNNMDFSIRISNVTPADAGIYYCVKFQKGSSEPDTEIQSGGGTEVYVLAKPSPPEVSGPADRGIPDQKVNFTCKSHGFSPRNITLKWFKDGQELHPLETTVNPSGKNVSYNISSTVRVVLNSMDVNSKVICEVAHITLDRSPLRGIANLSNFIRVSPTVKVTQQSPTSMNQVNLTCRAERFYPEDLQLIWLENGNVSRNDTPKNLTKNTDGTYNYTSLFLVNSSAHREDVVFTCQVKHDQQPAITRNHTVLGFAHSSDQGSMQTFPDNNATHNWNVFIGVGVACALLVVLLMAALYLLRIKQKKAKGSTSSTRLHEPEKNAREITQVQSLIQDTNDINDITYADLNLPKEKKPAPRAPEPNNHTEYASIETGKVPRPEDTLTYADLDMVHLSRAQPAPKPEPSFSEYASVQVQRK


Columns and labels:
[1] = molecular target: T3, Fc tagged human SIRPγ ECD recombinant protein (human, UniProt Q9P1W8 29-360); assay: competitive ELISA, biotin-CD47 ECD to coated SIRPγ ECD
T3 construct: range 1-360; cloned range includes the signal peptide; also called hSIRPγ; not shown: human IgG Fc region (hFc) of the pCPC vector
Procedure: For CD47 and SIRPγ interaction blocking activity detection, antibody and biotin labeled soluble human CD47 ECD recombinant protein were co-incubated with ELISA microplate coated human SIRPγ ECD recombinant protein. After washing, horseradish peroxidase labeled streptavidin (HRP-SA, Sigma) was added and incubated at 37° C. for 1 hour. Then, 100 μl/well of TMB solution (Biotechnology) was added. After incubation for 15 minutes at room temperature, the reaction was stopped by the addition of 50 μl of 1N HCl. OD 450 nm was read. Blocking ratio and IC₅₀ was calculated. In comparison with other known anti-SIRPα antibodies, 022, 050, 055, and 074 cannot block CD47 and SIRPα interaction. In particular, all of the antibodies of the invention cannot block CD47 and SIRPγ interaction.

[2] = molecular target: T4, 6×His tagged human SIRPα v2 ECD recombinant protein (human); assay: SPR (Biacore), antibody captured
Procedure: (§1) Anti-SIRPα chimeric antibodies were characterized for binding affinity against human SIRPα v1, human SIRPα v2 and C57BL/6 mouse SIRPα using Biacore (GE). Briefly the antibodies to be tested were captured to CM5 chip (GE) using Human Antibody Capture Kit (GE). The antigens of 6×His tagged human SIRPα v1, human SIRPα v2 and C57BL/6 mouse SIRPα ECD recombinant proteins were serially diluted for multiple doses and injected at 30 μl/min for 180 s. Buffer flow was maintained for dissociation of 400 s. 3 M MgCl₂ was used for chip regeneration. The association and dissociation curves were fit with 1:1 binding model, and the Ka/Kd/KD values for each antibody were calculated.

[3] = molecular target: T5, 6×His tagged human SIRPα v1 ECD recombinant protein (human, UniProt P78324 31-373); assay: SPR (Biacore), antibody captured
T5 construct: extracellular domain; bought; also called hSIRPα V1 (SPR antigen)
Procedure: as §1

[4] = molecular target: T1, 6×His tagged C57BL/6 mouse SIRPα ECD …; assay: SPR (Biacore), antibody captured
Procedure: as §1

[5] = molecular target: T4, 6×His tagged human SIRPα v2 ECD …; assay: SPR (Biacore), antibody captured, 6×His tagged human SIRPα v2 ECD as analyte
Procedure: as §1
hu035.01, the first version of humanized 035, was characterized by FACS assay using CHOK1-human SIRPα v1-1B4 cells, ELISA assay using Fc tagged human SIRPα v2 ECD recombinant protein and SPR analysis using the antigen of 6×His tagged human SIRPα v2 ECD recombinant protein (refer to methods described in Example 3.4, Example 3.3 and Example 4.3). […] In particular, hu035.01 cannot be detected to bind with C57BL/6 mouse SIRPα ECD in ELISA assay possibly due to reduced binding activity (FIG. 5B).

[6] = molecular target: T6, biotin labeled soluble human SIRPα v1 ECD recombinant protein (human, UniProt P78324 31-373, biotin labeled); assay: competitive ELISA, hSIRPα/CD47 blocking
T6 construct: extracellular domain

[7] = molecular target: T2, full length C57BL/6 mouse SIRPα stably …; assay: FACS on CHOK1-C57BL/6 mouse SIRPα-2.22 cells
Procedure: Species cross reactivity of the purified hybridoma antibodies against human, cyno and mouse SIRPα was determined by FACS assay using CHOK1-human SIRPα v1-1B4 cells, CHOK1-cyno SIRPα-2A2 cells, and CHOK1-C57BL/6 mouse SIRPα-2.22 cells, which stably expressing SIRPα protein. Briefly the antibodies were incubated with 2×10⁵ target cells at 4° C. for 1 hour. After washing, fluorescence labeled anti-mouse or anti-human IgG 2nd antibody (Life Technologies) was added and incubated at 4° C. for 1 hour. Geometric median fluorescence intensity was detected and EC₅₀ was calculated. In particular, it is noted, in contrast to the other antibodies tested in the same experiment, 060 cannot bind with cyno SIRPα and 035 has cross reactivity against C57BL/6 mouse SIRPα.

[8] = molecular target: T1, 6×His tagged C57BL/6 mouse SIRPα ECD …; assay: ELISA on coated mouse SIRPα (C57BL/6) ECD [Continued) F]

IC50 [1] [nM] | Kd [2] [nM] | koff [2] [s⁻¹] | kon [2] [M⁻¹ s⁻¹] | Kd [3] [nM] | koff [3] [s⁻¹] | kon [3] [M⁻¹ s⁻¹] | Kd [4] [nM] | koff [4] [s⁻¹] | kon [4] [M⁻¹ s⁻¹] | koff [5] [s⁻¹] | kon [5] [M⁻¹ s⁻¹] | IC50 [6] [nM] | EC50 (read off the curve) [7] [mg/L] | EC50 (read off the curve) [8] [mg/L] | Binder
1 |  |  |  |  |  |  |  |  |  |  |  |  |  |  | reference antibody KWAR23 (antibody, V domains shown) VH: EVQLQQSGAELVKPGASVKLSCTASGFNIKDYYIHWVQQRTEQGLEWIGRIDPEDGETKYAPKFQDKATITADTSSNTAYLHLSSLTSEDTAVYYCARWGAYWGQGTLVTVSS VL: QIVLTQSPAIMSASPGEKVTLTCSASSSVSSSYLYWYQQKPGSSPKLWIYSTSNLASGVPARFSGSGSGTSYSLTISSMEAEDAASYFCHQWSSYPRTFGAGTKLELK
3.4 |  |  |  |  |  |  |  |  |  |  |  |  |  |  | reference antibody 29-AM4-5 (antibody, V domains shown) VH: EVQLVESGGGLVQPGGSLRLSCAASGFNISYYFIHWVRQAPGKGLEWVASVYSSFGYTYYADSVKGRFTISADTSKNTAYLQMNSLRAEDTAVYYCARFTFPGLFDGFFGAYLGSLDYWGQGTLVTVSS VL: DIQMTQSPSSLSASVGDRVTITCRASQSVSSAVAWYQQKPGKAPKLLIYSASSLYSGVPSRFSGSRSGTDFTLTISSLQPEDFATYYCQQAVNWVGALVTFGQGTKVEIK
 | 3.82 | 0.000238 | 62100 | 1.89 | 0.000274 | 145000 | 5270 | 0.0247 | 4690 | 5.73e-05 | 93500 | 1.03 | ~0.3 | ~0.3 | chimeric antibody 035c (antibody, V domains shown) VH: QIQLVQSGPELRKPGETVKISCKASGYSFTNYAMNWVKQAPGKVLKWMGFINTYTGEPTYADDFKGRFAFSLETSASTAYLQINNLKNEDTATYFCTRTRGYYDFDGGAFDYWGQGTSLTVSS VL: DIVMTQSQKFMSTSIGDRVSVTCKASQNVGTHLAWYQQKPGQSPKALIFSASYRYIGVPDRFTGSGSGTDFTLTITNVQSEDLAEYFCQQYNTYPLTFGAGTKLELK
